The supplement of paper PMC10065799, “High-throughput profiling of sequence recognition by tyrosine kinases and SH2 domains using bacterial peptide display” (eLife, 2023)

molecular target: Hck (UniProt P08631); test: phosphorylation enrichment, bacterial display (enrichment ratio); higher = better substrate or ligand; peptides without Tyr show the background
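For SH2 binding enrichment of the phosphorylated peptide, bacterial display in this document: peptide library displayed on the E. coli surface as eCPX fusions, selected cells deep-sequenced, score is each peptide's frequency after selection divided by its frequency in the input.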
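For phosphorylation enrichment, bacterial display in this document: 11-residue human phosphosite peptides and single-mutation variants displayed on the E. coli surface, counted by deep sequencing, each peptide's frequency after selection divided by its frequency in the unselected input library; frequency after pTyr selection over input frequency; kinase dosed for 20-30% of maximal phosphorylation in three min.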

Chain of Hck (P08631 whole entry, looked up, the tested form may be a part): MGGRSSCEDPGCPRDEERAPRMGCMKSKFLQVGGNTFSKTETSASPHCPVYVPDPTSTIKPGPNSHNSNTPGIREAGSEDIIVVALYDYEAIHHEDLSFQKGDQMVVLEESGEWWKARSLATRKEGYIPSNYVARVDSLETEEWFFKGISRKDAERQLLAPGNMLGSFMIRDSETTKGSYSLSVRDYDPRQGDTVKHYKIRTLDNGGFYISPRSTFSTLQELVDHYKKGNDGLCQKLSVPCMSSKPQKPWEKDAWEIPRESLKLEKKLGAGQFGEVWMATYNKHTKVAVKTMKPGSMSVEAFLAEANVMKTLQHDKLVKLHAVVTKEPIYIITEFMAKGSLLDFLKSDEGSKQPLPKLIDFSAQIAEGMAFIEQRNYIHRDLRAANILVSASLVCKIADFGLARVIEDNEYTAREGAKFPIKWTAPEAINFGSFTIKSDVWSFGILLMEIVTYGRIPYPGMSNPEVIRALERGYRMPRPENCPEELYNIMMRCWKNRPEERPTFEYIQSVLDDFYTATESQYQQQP

| Sequence | phosphorylation enrichment |
| --- | --- |
| VVEDGYEFFAK [PPP1CB_Y254] | 0.491 |
| GHLYAYDWISI [BEST1_Y227] | 2.99 |
| SIVEDYRPPFF [ACVRL1_Y421_G416S_YF] | 0.38 |
| IRQGHYESLKE [MTR_Y921_D919G] | 0.519 |
| SDLTDYLMKIL [ACTA1_Y190_R185S] | 0.571 |
| LDLSYYHTSSS [EMD_Y182_P183H] | 0.452 |
| CTTIHYNYVCN [TP53_Y234_M237V] | 0.514 |
| KVKPIYFHTQG [AR_Y916] | 0.385 |
| MENFIYESMRY [CYP19A1_Y361] | 6.76 |
| LNPDGYKKAFE [CPXM2_Y427_E428K_YF] | 0.54 |
| FSPPYYHRNCM [HGD_Y334_R330S] | 0.515 |
| HNGVSYYINLC [IGF2R_Y2024] | 0.597 |
| LNPFIYSLRNR [OR1A1_Y288] | 1.28 |
| FGSLLYKFAFK [FANCD2_Y458_YF] | 0.37 |
| NIISFYLSRDP [CTSD_Y232_F229I] | 0.451 |
| DDERGYRRVRC [GIGYF2_Y268_S273C] | 0.483 |
| DKNSSYFADWF [TUBB8_Y340_L345F] | 0.397 |
| KGYRGYSYDDI [TMEM230_Y110] | 0.395 |
| RGVTHYILQTF [SLC39A4_Y359] | 0.711 |

molecular target: Jak2 (UniProt O60674); test: as above
Sequence (O60674 whole entry, looked up): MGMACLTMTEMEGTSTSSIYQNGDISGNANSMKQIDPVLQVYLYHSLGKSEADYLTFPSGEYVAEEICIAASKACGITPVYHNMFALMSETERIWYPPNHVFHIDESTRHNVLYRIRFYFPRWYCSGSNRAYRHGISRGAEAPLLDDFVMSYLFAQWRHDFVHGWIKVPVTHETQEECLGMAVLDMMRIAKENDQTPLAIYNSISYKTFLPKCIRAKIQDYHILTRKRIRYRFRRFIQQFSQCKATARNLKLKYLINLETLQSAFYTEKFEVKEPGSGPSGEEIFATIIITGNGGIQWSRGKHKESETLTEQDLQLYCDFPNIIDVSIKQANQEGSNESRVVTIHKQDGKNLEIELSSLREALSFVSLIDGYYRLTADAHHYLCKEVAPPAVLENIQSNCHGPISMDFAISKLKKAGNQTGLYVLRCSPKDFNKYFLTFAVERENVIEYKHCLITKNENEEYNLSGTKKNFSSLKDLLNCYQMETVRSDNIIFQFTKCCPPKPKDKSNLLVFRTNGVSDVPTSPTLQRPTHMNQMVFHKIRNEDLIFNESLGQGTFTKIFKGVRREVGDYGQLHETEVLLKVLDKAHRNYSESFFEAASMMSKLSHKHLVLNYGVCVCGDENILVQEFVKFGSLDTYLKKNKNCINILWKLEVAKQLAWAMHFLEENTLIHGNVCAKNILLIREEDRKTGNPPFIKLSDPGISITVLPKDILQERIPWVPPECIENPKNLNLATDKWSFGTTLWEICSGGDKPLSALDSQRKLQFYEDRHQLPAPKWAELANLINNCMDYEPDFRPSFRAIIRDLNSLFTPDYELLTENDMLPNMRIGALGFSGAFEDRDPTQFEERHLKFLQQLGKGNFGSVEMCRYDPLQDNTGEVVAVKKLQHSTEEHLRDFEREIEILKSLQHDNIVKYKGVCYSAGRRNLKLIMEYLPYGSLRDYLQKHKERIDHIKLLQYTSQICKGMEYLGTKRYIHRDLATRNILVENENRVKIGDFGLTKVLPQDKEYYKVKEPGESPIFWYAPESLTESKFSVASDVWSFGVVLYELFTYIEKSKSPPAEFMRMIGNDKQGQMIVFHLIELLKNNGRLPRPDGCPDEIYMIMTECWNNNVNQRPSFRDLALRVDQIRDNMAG

| Sequence | phosphorylation enrichment |
| --- | --- |
| VVEDGYEFFAK [PPP1CB_Y254] | 1.01 |
| GHLYAYDWISI [BEST1_Y227] | 0.923 |
| SIVEDYRPPFF [ACVRL1_Y421_G416S_YF] | 0.85 |
| IRQGHYESLKE [MTR_Y921_D919G] | 0.85 |
| SDLTDYLMKIL [ACTA1_Y190_R185S] | 1.1 |
| LDLSYYHTSSS [EMD_Y182_P183H] | 1.51 |
| CTTIHYNYVCN [TP53_Y234_M237V] | 0.828 |
| KVKPIYFHTQG [AR_Y916] | 0.53 |
| MENFIYESMRY [CYP19A1_Y361] | 0.839 |
| LNPDGYKKAFE [CPXM2_Y427_E428K_YF] | 1.68 |
| FSPPYYHRNCM [HGD_Y334_R330S] | 0.817 |
| HNGVSYYINLC [IGF2R_Y2024] | 1.35 |
| LNPFIYSLRNR [OR1A1_Y288] | 1.43 |
| FGSLLYKFAFK [FANCD2_Y458_YF] | 0.964 |
| NIISFYLSRDP [CTSD_Y232_F229I] | 0.958 |
| DDERGYRRVRC [GIGYF2_Y268_S273C] | 0.834 |
| DKNSSYFADWF [TUBB8_Y340_L345F] | 1.32 |
| KGYRGYSYDDI [TMEM230_Y110] | 0.607 |
| RGVTHYILQTF [SLC39A4_Y359] | 1.24 |

molecular target: MERTK (UniProt Q12866); test: as above
Sequence (Q12866 whole entry, looked up): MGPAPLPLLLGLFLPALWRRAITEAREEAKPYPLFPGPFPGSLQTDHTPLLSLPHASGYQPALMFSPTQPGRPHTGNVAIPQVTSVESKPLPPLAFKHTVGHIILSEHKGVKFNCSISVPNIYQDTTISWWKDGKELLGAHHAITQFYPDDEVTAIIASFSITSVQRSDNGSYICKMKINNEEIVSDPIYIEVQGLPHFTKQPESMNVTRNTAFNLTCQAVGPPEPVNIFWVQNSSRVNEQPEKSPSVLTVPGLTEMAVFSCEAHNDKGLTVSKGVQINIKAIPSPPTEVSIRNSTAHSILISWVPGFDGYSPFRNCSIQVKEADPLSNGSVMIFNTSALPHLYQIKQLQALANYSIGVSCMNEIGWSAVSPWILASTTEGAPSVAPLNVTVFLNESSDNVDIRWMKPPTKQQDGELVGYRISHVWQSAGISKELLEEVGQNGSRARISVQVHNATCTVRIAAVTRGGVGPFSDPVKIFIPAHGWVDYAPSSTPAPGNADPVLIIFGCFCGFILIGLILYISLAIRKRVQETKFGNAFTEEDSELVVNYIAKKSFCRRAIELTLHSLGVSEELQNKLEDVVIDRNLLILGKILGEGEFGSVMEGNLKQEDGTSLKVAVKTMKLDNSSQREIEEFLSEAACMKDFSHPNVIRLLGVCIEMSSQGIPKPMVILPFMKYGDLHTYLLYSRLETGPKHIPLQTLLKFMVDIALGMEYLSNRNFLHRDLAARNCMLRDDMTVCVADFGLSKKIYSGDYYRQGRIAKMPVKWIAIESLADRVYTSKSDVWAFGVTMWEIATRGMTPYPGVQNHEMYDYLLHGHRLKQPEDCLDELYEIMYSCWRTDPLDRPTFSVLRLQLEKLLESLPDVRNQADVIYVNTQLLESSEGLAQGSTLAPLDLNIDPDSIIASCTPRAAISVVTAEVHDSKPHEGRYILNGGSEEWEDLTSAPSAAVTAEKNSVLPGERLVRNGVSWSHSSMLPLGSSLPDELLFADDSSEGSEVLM

| Sequence | phosphorylation enrichment |
| --- | --- |
| VVEDGYEFFAK [PPP1CB_Y254] | 0.392 |
| GHLYAYDWISI [BEST1_Y227] | 9.38 |
| SIVEDYRPPFF [ACVRL1_Y421_G416S_YF] | 0.473 |
| IRQGHYESLKE [MTR_Y921_D919G] | 0.457 |
| SDLTDYLMKIL [ACTA1_Y190_R185S] | 0.445 |
| LDLSYYHTSSS [EMD_Y182_P183H] | 0.634 |
| CTTIHYNYVCN [TP53_Y234_M237V] | 0.498 |
| KVKPIYFHTQG [AR_Y916] | 0.356 |
| MENFIYESMRY [CYP19A1_Y361] | 2.31 |
| LNPDGYKKAFE [CPXM2_Y427_E428K_YF] | 0.727 |
| FSPPYYHRNCM [HGD_Y334_R330S] | 0.451 |
| HNGVSYYINLC [IGF2R_Y2024] | 0.513 |
| LNPFIYSLRNR [OR1A1_Y288] | 0.493 |
| FGSLLYKFAFK [FANCD2_Y458_YF] | 0.4 |
| NIISFYLSRDP [CTSD_Y232_F229I] | 0.36 |
| DDERGYRRVRC [GIGYF2_Y268_S273C] | 0.438 |
| DKNSSYFADWF [TUBB8_Y340_L345F] | 2.04 |
| KGYRGYSYDDI [TMEM230_Y110] | 0.417 |
| RGVTHYILQTF [SLC39A4_Y359] | 0.553 |

system: c-Abl (mouse); test: as above

| Sequence | phosphorylation enrichment |
| --- | --- |
| VVEDGYEFFAK [PPP1CB_Y254] | 0.574 |
| GHLYAYDWISI [BEST1_Y227] | 0.848 |
| SIVEDYRPPFF [ACVRL1_Y421_G416S_YF] | 0.821 |
| IRQGHYESLKE [MTR_Y921_D919G] | 0.443 |
| SDLTDYLMKIL [ACTA1_Y190_R185S] | 0.789 |
| LDLSYYHTSSS [EMD_Y182_P183H] | 0.672 |
| CTTIHYNYVCN [TP53_Y234_M237V] | 0.595 |
| KVKPIYFHTQG [AR_Y916] | 0.578 |
| MENFIYESMRY [CYP19A1_Y361] | 1.25 |
| LNPDGYKKAFE [CPXM2_Y427_E428K_YF] | 1.28 |
| FSPPYYHRNCM [HGD_Y334_R330S] | 0.749 |
| HNGVSYYINLC [IGF2R_Y2024] | 1.15 |
| LNPFIYSLRNR [OR1A1_Y288] | 0.974 |
| FGSLLYKFAFK [FANCD2_Y458_YF] | 0.726 |
| NIISFYLSRDP [CTSD_Y232_F229I] | 0.655 |
| DDERGYRRVRC [GIGYF2_Y268_S273C] | 0.647 |
| DKNSSYFADWF [TUBB8_Y340_L345F] | 0.613 |
| KGYRGYSYDDI [TMEM230_Y110] | 0.547 |
| RGVTHYILQTF [SLC39A4_Y359] | 0.944 |

system: c-Src; test: as above

| Sequence | phosphorylation enrichment |
| --- | --- |
| VVEDGYEFFAK [PPP1CB_Y254] | 0.504 |
| GHLYAYDWISI [BEST1_Y227] | 2.38 |
| SIVEDYRPPFF [ACVRL1_Y421_G416S_YF] | 0.45 |
| IRQGHYESLKE [MTR_Y921_D919G] | 0.45 |
| SDLTDYLMKIL [ACTA1_Y190_R185S] | 0.507 |
| LDLSYYHTSSS [EMD_Y182_P183H] | 0.676 |
| CTTIHYNYVCN [TP53_Y234_M237V] | 0.455 |
| KVKPIYFHTQG [AR_Y916] | 0.522 |
| MENFIYESMRY [CYP19A1_Y361] | 6.18 |
| LNPDGYKKAFE [CPXM2_Y427_E428K_YF] | 0.827 |
| FSPPYYHRNCM [HGD_Y334_R330S] | 0.482 |
| HNGVSYYINLC [IGF2R_Y2024] | 0.419 |
| LNPFIYSLRNR [OR1A1_Y288] | 2.23 |
| FGSLLYKFAFK [FANCD2_Y458_YF] | 0.453 |
| NIISFYLSRDP [CTSD_Y232_F229I] | 0.346 |
| DDERGYRRVRC [GIGYF2_Y268_S273C] | 0.426 |
| DKNSSYFADWF [TUBB8_Y340_L345F] | 0.435 |
| KGYRGYSYDDI [TMEM230_Y110] | 0.434 |
| RGVTHYILQTF [SLC39A4_Y359] | 0.48 |

molecular target: Grb2 SH2 (UniProt P62993); test: SH2 binding enrichment of the phosphorylated peptide, bacterial display (enrichment ratio); higher = better substrate or ligand; peptides without Tyr show the background

| SH2 binding enrichment | Sequence |
| --- | --- |
| 0.984 | VVEDGYEFFAK [PPP1CB_Y254] |
| 0.951 | IRQGHYESLKE [MTR_Y921_D919G] |
| 1.36 | CTTIHYNYVCN [TP53_Y234_M237V] |
| 1.14 | HNGVSYYINLC [IGF2R_Y2024] |
| 0.873 | LNPFIYSLRNR [OR1A1_Y288] |
| 0.984 | DKNSSYFADWF [TUBB8_Y340_L345F] |
| 0.963 | KGYRGYSYDDI [TMEM230_Y110] |
| 1.33 | RGVTHYILQTF [SLC39A4_Y359] |

Continued, sequence first:

| Sequence | SH2 binding enrichment |
| --- | --- |
| GHLYAYDWISI [BEST1_Y227] | 1.56 |
| SIVEDYRPPFF [ACVRL1_Y421_G416S_YF] | 0.83 |
| SDLTDYLMKIL [ACTA1_Y190_R185S] | 1.16 |
| LDLSYYHTSSS [EMD_Y182_P183H] | 1.26 |
| KVKPIYFHTQG [AR_Y916] | 1.59 |
| MENFIYESMRY [CYP19A1_Y361] | 0.819 |
| LNPDGYKKAFE [CPXM2_Y427_E428K_YF] | 0.945 |
| FSPPYYHRNCM [HGD_Y334_R330S] | 0.876 |
| FGSLLYKFAFK [FANCD2_Y458_YF] | 0.983 |
| NIISFYLSRDP [CTSD_Y232_F229I] | 1.59 |
| DDERGYRRVRC [GIGYF2_Y268_S273C] | 1.09 |

molecular target: SHP2-C SH2; test: as above

| SH2 binding enrichment | Sequence |
| --- | --- |
| 0.856 | VVEDGYEFFAK [PPP1CB_Y254] |
| 0.765 | IRQGHYESLKE [MTR_Y921_D919G] |
| 4.2 | CTTIHYNYVCN [TP53_Y234_M237V] |
| 1 | HNGVSYYINLC [IGF2R_Y2024] |
| 1.55 | LNPFIYSLRNR [OR1A1_Y288] |
| 0.821 | DKNSSYFADWF [TUBB8_Y340_L345F] |
| 0.652 | KGYRGYSYDDI [TMEM230_Y110] |
| 1.2 | RGVTHYILQTF [SLC39A4_Y359] |

Further lines, the sequence ahead of its results:

| Sequence | SH2 binding enrichment |
| --- | --- |
| GHLYAYDWISI [BEST1_Y227] | 1.31 |
| SIVEDYRPPFF [ACVRL1_Y421_G416S_YF] | 0.73 |
| SDLTDYLMKIL [ACTA1_Y190_R185S] | 0.903 |
| LDLSYYHTSSS [EMD_Y182_P183H] | 1.36 |
| KVKPIYFHTQG [AR_Y916] | 1.82 |
| MENFIYESMRY [CYP19A1_Y361] | 0.553 |
| LNPDGYKKAFE [CPXM2_Y427_E428K_YF] | 0.578 |
| FSPPYYHRNCM [HGD_Y334_R330S] | 0.778 |
| FGSLLYKFAFK [FANCD2_Y458_YF] | 0.732 |
| NIISFYLSRDP [CTSD_Y232_F229I] | 1.41 |
| DDERGYRRVRC [GIGYF2_Y268_S273C] | 0.788 |

molecular target: c-Src SH2; test: as above

| SH2 binding enrichment | Sequence |
| --- | --- |
| 1.08 | VVEDGYEFFAK [PPP1CB_Y254] |
| 5.48 | IRQGHYESLKE [MTR_Y921_D919G] |
| 7.58 | CTTIHYNYVCN [TP53_Y234_M237V] |
| 0.431 | HNGVSYYINLC [IGF2R_Y2024] |
| 0.486 | LNPFIYSLRNR [OR1A1_Y288] |
| 0.681 | DKNSSYFADWF [TUBB8_Y340_L345F] |
| 3.92 | KGYRGYSYDDI [TMEM230_Y110] |
| 1.05 | RGVTHYILQTF [SLC39A4_Y359] |

The remaining lines, values behind:

| Sequence | SH2 binding enrichment |
| --- | --- |
| GHLYAYDWISI [BEST1_Y227] | 1.76 |
| SIVEDYRPPFF [ACVRL1_Y421_G416S_YF] | 0.444 |
| SDLTDYLMKIL [ACTA1_Y190_R185S] | 0.608 |
| LDLSYYHTSSS [EMD_Y182_P183H] | 1.19 |
| KVKPIYFHTQG [AR_Y916] | 1.37 |
| MENFIYESMRY [CYP19A1_Y361] | 0.627 |
| LNPDGYKKAFE [CPXM2_Y427_E428K_YF] | 0.488 |
| FSPPYYHRNCM [HGD_Y334_R330S] | 0.606 |
| FGSLLYKFAFK [FANCD2_Y458_YF] | 0.449 |
| NIISFYLSRDP [CTSD_Y232_F229I] | 1.11 |
| DDERGYRRVRC [GIGYF2_Y268_S273C] | 0.658 |
